In patent US10245299B2, “Autoassembling peptides for the treatment of pulmonary bulla” (3-D MATRIX, LTD., priority 2014, dated 2019):

Key:
Format in all cases: physicochemical
[1] = pH and appearance of 2.5% peptide solutions after adding 0.1 N NaOH
Experimental: To adjust the pH level of the peptide solutions by way of example, 0.1 N NaOH was added to 2 mL of 2.5% peptide solutions and their pH and appearance were measured.

[2] = Gelation of peptide solutions after saline buffer treatment, time sweep; details: saline buffer (0.15 M of NaCl); IEIK13 1.5%, KLD12 1.5%, PuraMatrix® 2.5% solution
Experimental: The effect of salt ionic strength level surrounding peptide solution on the properties of peptide solutions was evaluated to identify the possibility of peptide gelation when the peptide solution is placed into the environment where salt ionic strength level is high. […] Without pH effect, the effect of saline treatment on gelation of peptide solutions were evaluated. […] This is because IEIK13 is much more sensitive to salt ionic strength levels. Fast gelation of IEIK13 at the salt ionic strength level similar to body fluid isotonic salt level may generally improve its function and gelation speed for various clinical applications. The results are shown in FIG. 19 for IEIK13, KLD12 and PuraMatrix® solutions. Time sweep tests were performed at 1 rad/sec and at 1 Pa with 20 mm plates and 500 μm gap distance. […]

[3] = Appearance of 1.5% peptide solutions with various salts at room temperature; details: for Appearance: IEIK13 solution, room temperature
Experimental: The effect of salt ionic strength level on the properties of peptide solutions was evaluated to identify optimized salt ionic strength levels for the peptides as described herein. Increasing the salt ionic strength level of PuraMatrix® and other peptides may generally improve its function and mechanical strength for various clinical applications. To adjust the salt ionic strength of the peptide solutions by way of example, various salt buffer solutions including NaCl, KCl, MgCl2, CaCl2 and DPBS (10×) were added to 2 mL of 1.5% peptide solutions.

Substance: Ile-Glu-Ile-Lys-Ile-Glu-Ile-Lys-Ile-Glu-Ile-Lys-Ile [IEIK13]
- Appearance ([1]; 0.1N NaOH 0 μL/mL, conc. 2.5%, pH 1.8): Clear, thick gel
- Appearance ([1]; 0.1N NaOH 50 μL/mL, conc. 2.38%, pH 2.1): Clear, thick gel
- Appearance ([1]; 0.1N NaOH 100 μL/mL, conc. 2.27%, pH 2.2): Clear, thick gel
- Appearance ([1]; 0.1N NaOH 150 μL/mL, conc. 2.17%, pH 2.7): Clear, thick gel,
- Appearance ([1]; 0.1N NaOH 200 μL/mL, conc. 2.08%, pH 3.0): Clear, thick gel,
- Appearance ([1]; 0.1N NaOH 250 μL/mL, conc. 2.0%, pH 3.3): Clear, thick gel,
- Appearance ([1]; 0.1N NaOH 275 μL/mL, conc. 1.96%, pH 3.7): Clear, thick,
- Appearance ([1]; 0.1N NaOH 300 μL/mL, conc. 1.92%, pH 4.0): Slightly cloudy,
- Appearance ([1]; 0.1N NaOH 350 μL/mL, conc. 1.85%, pH 4.5): Cloudy, brittle gel
- Appearance ([1]; 0.1N NaOH 400 μL/mL, conc. 1.79%, pH 5.4): Cloudy, phase-
- Peptide solution pH ([1]; 0.1N NaOH added in 2.5% solution 0 μL/mL, conc. 2.5%): 1.8
- Peptide solution pH ([1]; 0.1N NaOH added in 2.5% solution 50 μL/mL, conc. 2.38%): 2.1
- Peptide solution pH ([1]; 0.1N NaOH added in 2.5% solution 100 μL/mL, conc. 2.27%): 2.2
- Peptide solution pH ([1]; 0.1N NaOH added in 2.5% solution 150 μL/mL, conc. 2.17%): 2.7
- Peptide solution pH ([1]; 0.1N NaOH added in 2.5% solution 200 μL/mL, conc. 2.08%): 3.0
- Peptide solution pH ([1]; 0.1N NaOH added in 2.5% solution 250 μL/mL, conc. 2.0%): 3.3
- Peptide solution pH ([1]; 0.1N NaOH added in 2.5% solution 275 μL/mL, conc. 1.96%): 3.7
- Peptide solution pH ([1]; 0.1N NaOH added in 2.5% solution 300 μL/mL, conc. 1.92%): 4.0
- Peptide solution pH ([1]; 0.1N NaOH added in 2.5% solution 350 μL/mL, conc. 1.85%): 4.5
- Peptide solution pH ([1]; 0.1N NaOH added in 2.5% solution 400 μL/mL, conc. 1.79%): 5.4
- Appearance ([1]; pH 7.0): Cloudy, phase-
- gelation after saline buffer treatment [2]: fast gelation
- Appearance ([3]; conc. 1.16%, KCl 0.045 M, ionic strength 0.045 M): Cloudy, phase-separated
- Appearance ([3]; conc. 1.2%, KCl 0.04 M, ionic strength 0.04 M): Slightly cloudy, brittle
- Appearance ([3]; conc. 1.2%, NaCl 0.04 M, ionic strength 0.04 M): Cloudy, phase-separated
- Appearance ([3]; conc. 1.24%, KCl 0.035 M, ionic strength 0.035 M): Slightly cloudy, brittle gel
- Appearance ([3]; conc. 1.24%, NaCl 0.035 M, ionic strength 0.035 M): Slightly cloudy, brittle gel
- Appearance ([3]; conc. 1.27%, KCl 0.03 M, ionic strength 0.03 M): Clear, thick, stiffer gel
- Appearance ([3]; conc. 1.27%, NaCl 0.03 M, ionic strength 0.03 M): Slightly cloudy, thick, stiffer gel
- Appearance ([3]; conc. 1.31%, KCl 0.025 M, ionic strength 0.025 M): Clear, thick, stiffer gel
- Appearance ([3]; conc. 1.31%, NaCl 0.025 M, ionic strength 0.025 M): Clear, thick, stiffer gel
- Appearance ([3]; conc. 1.35%, KCl 0.02 M, ionic strength 0.02 M): Clear, thick, stiffer gel
- Appearance ([3]; conc. 1.35%, NaCl 0.02 M, ionic strength 0.02 M): Clear, thick, stiffer gel
- Appearance ([3]; conc. 1.36%, CaCl2 0.0183 M, ionic strength 0.055 M): Cloudy, phase-separated
- Appearance ([3]; conc. 1.36%, MgCl2 0.0183 M, ionic strength 0.055 M): Cloudy, phase-separated
- Appearance ([3]; conc. 1.37%, CaCl2 0.0167 M, ionic strength 0.05 M): Slightly cloudy, brittle gel
- Appearance ([3]; conc. 1.37%, MgCl2 0.0167 M, ionic strength 0.05 M): Slightly cloudy, brittle gel
- Appearance ([3]; conc. 1.39%, CaCl2 0.015 M, ionic strength 0.045 M): Slightly cloudy, thick, stiffer gel
- Appearance ([3]; conc. 1.39%, KCl 0.015 M, ionic strength 0.015 M): Clear, thick, stiffer gel
- Appearance ([3]; conc. 1.39%, MgCl2 0.015 M, ionic strength 0.045 M): Slightly cloudy, stiffer gel
- Appearance ([3]; conc. 1.39%, NaCl 0.015 M, ionic strength 0.015 M): Clear, thick, stiffer gel
- Appearance ([3]; conc. 1.40%, CaCl2 0.0133 M, ionic strength 0.04 M): Slightly cloudy, thick, stiffer gel
- Appearance ([3]; conc. 1.40%, MgCl2 0.0133 M, ionic strength 0.04 M): Slightly cloudy, thick, stiffer gel
- Appearance ([3]; conc. 1.41%, CaCl2 0.0117 M, ionic strength 0.035 M): Clear, thick, stiffer gel
- Appearance ([3]; conc. 1.41%, MgCl2 0.0117 M, ionic strength 0.035 M): Clear, thick, stiffer gel
- Appearance ([3]; conc. 1.43%, CaCl2 0.01 M, ionic strength 0.03 M): Clear, thick, stiffer gel
- Appearance ([3]; conc. 1.43%, KCl 0.01 M, ionic strength 0.01 M): Clear, thick, stiffer gel
- Appearance ([3]; conc. 1.43%, MgCl2 0.01 M, ionic strength 0.03 M): Clear, thick, stiffer gel
- Appearance ([3]; conc. 1.43%, NaCl 0.01 M, ionic strength 0.01 M): Clear, thick, stiffer gel
- Appearance ([3]; conc. 1.44%, CaCl2 0.0083 M, ionic strength 0.025 M): Clear, thick, stiffer gel
- Appearance ([3]; conc. 1.44%, MgCl2 0.0083 M, ionic strength 0.025 M): Clear, thick, stiffer gel
- Appearance ([3]; conc. 1.45%, CaCl2 0.0067 M, ionic strength 0.02 M): Clear, thick, stiffer gel
- Appearance ([3]; conc. 1.45%, MgCl2 0.0067 M, ionic strength 0.02 M): Clear, thick, stiffer gel
- Appearance ([3]; conc. 1.46%, CaCl2 0.005 M, ionic strength 0.015 M): Clear, thick, stiffer gel
- Appearance ([3]; conc. 1.46%, KCl 0.005 M, ionic strength 0.005 M): Clear, thick, stiffer gel
- Appearance ([3]; conc. 1.46%, MgCl2 0.005 M, ionic strength 0.015 M): Clear, thick, stiffer gel
- Appearance ([3]; conc. 1.46%, NaCl 0.005 M, ionic strength 0.005 M): Clear, thick, stiffer gel
- Appearance ([3]; conc. 1.5%, CaCl2 0 M, ionic strength 0 M): Clear, thick gel
- Appearance ([3]; conc. 1.5%, KCl 0 M, ionic strength 0 M): Clear, thick gel
- Appearance ([3]; conc. 1.5%, MgCl2 0 M, ionic strength 0 M): Clear, thick gel
- Appearance ([3]; conc. 1.5%, NaCl 0 M, ionic strength 0 M): Clear, thick gel
- salt ionic strength increase that did not change the clear color of the solution (apparent stiffness increased) ([3]; depending on different salts, 1.5% peptide solutions): 0.025˜0.035 M
